{"source": "paper PMC4741471", "about": "(Oncotarget, 2015)", "proteins": {"B1": {"name": "cholera toxin B subunit (recombinant, His6-tagged CTB) (natural protein)", "chain": "TPQNITDLCAEYHNTQIYTLNDKIFSYTESLAGKREMAIITFKNGAIFQVEVPGSQHIDSQKKAIERMKDTLRIAYLTEAKVEKLCVWNNKTPHAIAAISMAN"}}, "biological_target": "the molecule itself", "assay": "non-reducing SDS-PAGE without heating"}
{"protein": "B1", "values": [{"measurement": "stoichiometry N", "value": 5}]}
